T1: full-length human MMACHC (HsMMACHCFL) (human, UniProt Q9Y4U1 1-282)
T1 construct: human MMACHC, full length (C-terminal Pro-rich region is aa 236-282); source: E. coli BL21(DE3)R3, purified (Ni-Sepharose, Superdex 200)
T1 sequence (looked up): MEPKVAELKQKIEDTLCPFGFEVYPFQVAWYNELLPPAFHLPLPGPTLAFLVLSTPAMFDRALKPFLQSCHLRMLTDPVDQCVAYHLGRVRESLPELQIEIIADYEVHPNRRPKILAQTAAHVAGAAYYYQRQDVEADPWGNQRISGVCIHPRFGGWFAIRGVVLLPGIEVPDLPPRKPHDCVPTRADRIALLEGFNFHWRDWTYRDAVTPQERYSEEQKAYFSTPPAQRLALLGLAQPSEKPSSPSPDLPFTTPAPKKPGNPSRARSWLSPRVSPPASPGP

T2: untagged HsMMACHCΔC (human, UniProt Q9Y4U1 1-235)
T2 construct: human MMACHC lacking the C-terminal Pro-rich region (aa 236-282); Form used for SAXS; not shown: His6, N-terminal, cleaved
T2 sequence (looked up): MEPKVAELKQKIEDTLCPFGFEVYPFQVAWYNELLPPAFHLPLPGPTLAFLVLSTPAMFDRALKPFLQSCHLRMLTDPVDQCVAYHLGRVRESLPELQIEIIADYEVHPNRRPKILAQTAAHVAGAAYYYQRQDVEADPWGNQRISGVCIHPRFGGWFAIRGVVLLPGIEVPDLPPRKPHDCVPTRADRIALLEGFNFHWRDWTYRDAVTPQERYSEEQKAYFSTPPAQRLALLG

T3: HsMMACHCΔC (human, UniProt Q9Y4U1 1-235)
T3 construct: human MMACHC lacking the C-terminal Pro-rich region (aa 236-282); Form used in BN-PAGE and size-exclusion chromatography; source: E. coli BL21(DE3)R3, purified (Ni-Sepharose, Superdex 200)
T3 sequence (looked up): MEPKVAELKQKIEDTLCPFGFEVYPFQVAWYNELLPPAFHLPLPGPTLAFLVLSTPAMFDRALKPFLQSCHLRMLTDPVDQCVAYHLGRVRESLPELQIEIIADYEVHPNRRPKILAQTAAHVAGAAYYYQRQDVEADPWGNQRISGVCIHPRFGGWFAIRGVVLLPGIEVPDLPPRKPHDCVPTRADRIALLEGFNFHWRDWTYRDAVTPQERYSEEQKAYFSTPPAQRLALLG

T4: full-length human MMACHC (HsMMACHCFL) (human), Q9Y4U1
T4 chain: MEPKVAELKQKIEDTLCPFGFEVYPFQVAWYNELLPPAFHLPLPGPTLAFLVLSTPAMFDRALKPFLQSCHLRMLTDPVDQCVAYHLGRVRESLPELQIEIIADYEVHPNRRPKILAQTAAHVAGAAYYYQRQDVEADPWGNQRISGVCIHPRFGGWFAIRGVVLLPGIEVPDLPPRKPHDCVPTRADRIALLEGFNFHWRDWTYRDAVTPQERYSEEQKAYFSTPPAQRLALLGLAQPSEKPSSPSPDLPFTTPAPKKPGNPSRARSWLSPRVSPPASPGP


Columns and labels:
[1] = molecular target: T1, full-length human MMACHC (HsMMACHCFL); assay: native gel or EMSA; blue native-PAGE; 25 μM of each protein with 50 μM MeCbl and 8 mM GSH, preincubated in the dark at room temperature for 1 h; complex judged by an additional band; details: both partners purified
untagged HsMMACHCΔC = molecular target: T2, untagged HsMMACHCΔC; assay: SAXS; complex reconstituted from untagged proteins with MeCbl and GSH, purified by size-exclusion chromatography, 17 mg/ml; in-line HPLC column or batch mode; Diamond B21; details: both partners purified
HsMMACHCΔC = molecular target: T3, HsMMACHCΔC; assay: SEC; analytical size-exclusion chromatography of the two proteins with MeCbl and GSH; molecular weights from a calibration curve; details: both partners purified
[2] = molecular target: T4, full-length human MMACHC (HsMMACHCFL) …; assay: native gel or EMSA; blue native-PAGE of single proteins, 25 μM; MMACHC alone and with MeCbl and GSH; MMADHC truncations alone; details: remark: other sources report otherwise
[3] = molecular target: T1, full-length human MMACHC (HsMMACHCFL); assay: native MS; about 4 mg/ml MMADHC and MMACHC incubated with 0.5 mM MeCbl and 2 mM reduced GSH, desalted into 50 mM ammonium acetate pH 6.5; Q-TOF, electrospray, positive ion mode; details: both partners purified

| binding result [1] | Binder | other results |
| --- | --- | --- |
| binds | HsMMADHCΔ153 (domain or fragment, human, UniProt Q9H3L0 154-296, looked up, source: E. coli BL21(DE3)R3, purified (Ni-Sepharose, Superdex 200)) PELLRKDFESLFPEVANGKLMILTVTQKTKNDMTVWSEEVEIEREVLLEKFINGAKEICYALRAEGYWADFIDPSSGLAFFGPYTNNTLFETDERYRHLGFSVDDLGCCKVIRHSLWGTHVVVGSIFTNATPDSHIMKKLSGN |  |
|  | untagged MmMMADHCΔ128 (domain or fragment, Mus musculus, UniProt Q99LS1 129-296, looked up, mouse MMADHC aa 129-296; Form used for SAXS; not shown: His6, N-terminal, cleaved) PVEQEINSAETYFESAKVECAIQTCPELLRRDFESLFPEVANSKLMILTVTQKTENDMTVWSEEVEVEREVLLEKFISGAKEICYALRAEGYWADFIDPSSGVAFFGPYTNNTLFETDERYRHLGFSVDDLGCCKVIRHSLWGTHVVVGSIFTNATADSSIMRKLSGN | stoichiometry N (untagged HsMMACHCΔC): 1 |
|  | MmMMADHCΔ128 (M. musculus MMADHC aa 129-296) (domain or fragment, Mus musculus, UniProt Q99LS1 129-296, looked up, Form used in BN-PAGE and size-exclusion chromatography; source: E. coli BL21(DE3)R3, purified (Ni-Sepharose, Superdex 200)) PVEQEINSAETYFESAKVECAIQTCPELLRRDFESLFPEVANSKLMILTVTQKTENDMTVWSEEVEVEREVLLEKFISGAKEICYALRAEGYWADFIDPSSGVAFFGPYTNNTLFETDERYRHLGFSVDDLGCCKVIRHSLWGTHVVVGSIFTNATADSSIMRKLSGN | stoichiometry N (HsMMACHCΔC): 1 |
|  | full-length human MMACHC (HsMMACHCFL), Q9Y4U1 1-282 (natural protein) MEPKVAELKQKIEDTLCPFGFEVYPFQVAWYNELLPPAFHLPLPGPTLAFLVLSTPAMFDRALKPFLQSCHLRMLTDPVDQCVAYHLGRVRESLPELQIEIIADYEVHPNRRPKILAQTAAHVAGAAYYYQRQDVEADPWGNQRISGVCIHPRFGGWFAIRGVVLLPGIEVPDLPPRKPHDCVPTRADRIALLEGFNFHWRDWTYRDAVTPQERYSEEQKAYFSTPPAQRLALLGLAQPSEKPSSPSPDLPFTTPAPKKPGNPSRARSWLSPRVSPPASPGP | stoichiometry N [2]: 2 |
|  | HsMMADHCΔ123 (domain or fragment, human, UniProt Q9H3L0 124-296, looked up, human MMADHC (296 aa) with N-terminal truncation Δ123; source: E. coli BL21(DE3)R3, purified (Ni-Sepharose, Superdex 200)) QGNDAPVEQEINSAETYFESARVECAIQTCPELLRKDFESLFPEVANGKLMILTVTQKTKNDMTVWSEEVEIEREVLLEKFINGAKEICYALRAEGYWADFIDPSSGLAFFGPYTNNTLFETDERYRHLGFSVDDLGCCKVIRHSLWGTHVVVGSIFTNATPDSHIMKKLSGN | stoichiometry N [3]: 1 |
| binds | HsMMADHCΔ123-L259P (domain or fragment, human, UniProt Q9H3L0 124-296, looked up, human MMADHC Δ123 construct with p.L259P (stretch 3); also called p.L259P; source: E. coli BL21(DE3)R3, purified (Ni-Sepharose, Superdex 200)) QGNDAPVEQEINSAETYFESARVECAIQTCPELLRKDFESLFPEVANGKLMILTVTQKTKNDMTVWSEEVEIEREVLLEKFINGAKEICYALRAEGYWADFIDPSSGLAFFGPYTNNTLFETDERYRHLGFSVDDPGCCKVIRHSLWGTHVVVGSIFTNATPDSHIMKKLSGN |  |
| binds | HsMMADHCΔ123-D226A (domain or fragment, human, UniProt Q9H3L0 124-296, looked up, human MMADHC Δ123 construct with p.D226A (stretch 2); also called p.D226A; source: E. coli BL21(DE3)R3, purified (Ni-Sepharose, Superdex 200)) QGNDAPVEQEINSAETYFESARVECAIQTCPELLRKDFESLFPEVANGKLMILTVTQKTKNDMTVWSEEVEIEREVLLEKFINGAKEICYALRAEGYWADFIAPSSGLAFFGPYTNNTLFETDERYRHLGFSVDDLGCCKVIRHSLWGTHVVVGSIFTNATPDSHIMKKLSGN |  |
| binds | HsMMADHCΔ123-M186A (domain or fragment, human, UniProt Q9H3L0 124-296, looked up, human MMADHC Δ123 construct with p.M186A (stretch 1); also called p.M186A; source: E. coli BL21(DE3)R3, purified (Ni-Sepharose, Superdex 200)) QGNDAPVEQEINSAETYFESARVECAIQTCPELLRKDFESLFPEVANGKLMILTVTQKTKNDATVWSEEVEIEREVLLEKFINGAKEICYALRAEGYWADFIDPSSGLAFFGPYTNNTLFETDERYRHLGFSVDDLGCCKVIRHSLWGTHVVVGSIFTNATPDSHIMKKLSGN |  |
| binds | HsMMADHCΔ61 (domain or fragment, human, UniProt Q9H3L0 62-296, looked up, human MMADHC (296 aa) with N-terminal truncation Δ61; by analogy with MmMMADHCΔ128 = aa 129-296; source: E. coli BL21(DE3)R3, purified (Ni-Sepharose, Superdex 200)) MGPFGPQDQRFQLPGNIGFDCHLNGTASQKKSLVHKTLPDVLAEPLSSERHEFVMAQYVNEFQGNDAPVEQEINSAETYFESARVECAIQTCPELLRKDFESLFPEVANGKLMILTVTQKTKNDMTVWSEEVEIEREVLLEKFINGAKEICYALRAEGYWADFIDPSSGLAFFGPYTNNTLFETDERYRHLGFSVDDLGCCKVIRHSLWGTHVVVGSIFTNATPDSHIMKKLSGN |  |

From PMC4705923, “Structural Insights into the MMACHC-MMADHC Protein Complex Involved in Vitamin B12 Trafficking*” (The Journal of Biological Chemistry, 2015)
